B1: H1H6762P: anti-PRLR antibody, human IgG1 Fc; HCVR/LCVR SEQ ID NOs 2/10 (antibody, V domains shown)
VH: QVQLVESGGGVVQPGRSLRLSCAASGFTFSHYGMVWVRQPPGKGLEWVALISFDGTTKYYADSVKGRFTISRDNSKNTLYLQMNSLRAEDTAVYFCVGAIAAAAFDLWGRGTLVTVSS
VL: EIVMTQSPATLSVSPGERATLSCRASQSVSSDLAWYQQKPGQAPRLLIYSASARATGIPARFTGSGSGTDFTLTISSLQSEDFAVYYCQQYNNWPMYTFGQGTKLEIK
modifications: human IgG1 Fc
B2: H1H6975N: human IgG1 Fc form of H2M6975N; anti-PRLR; HCVR/LCVR SEQ ID NOs 370/378 (antibody, V domains shown)
VH: EVHLVESGGGLVQPGGSLRLSCAASGFTFSSYEMNWVRQTPGKGLEWISHISSRSVIIYYADSVKGRFTISRDNAKNSLFLQMNSLRAEDTAVYFCAGITIFGIPEYWGQGTLVTVSS
VL: EIVLTQSPATLSLSPGERATLSCRASQSVSSYFAWYQQKPGQAPRLLIYDASSRATGIPTRFSGSGSGTDFTLTISSLEPEDFAVYYCQQRSSWPITFGQGTRLEIK
modifications: human IgG1 Fc
B3: H1H6774P: anti-PRLR antibody, human IgG1 Fc; HCVR/LCVR SEQ ID NOs 34/42 (antibody, V domains shown)
VH: EVQLVESGGGLAQPGGSLRLSCVASGFTFSTYWMSWVRQAPGKGLDWVGNIKQDGSEQNYVDSVRGRFTISRDNAKNSLFLQMNSLRAEDTGVYYCATLLTKGDYWGQGTLVTVSS
VL: DIQMTQSPSSLSASVGDSVTITCRASQDISNYLDWFQQKPGKAPKSLIYAASILQGGVPSRFSGSGYGTDFTLTISSLQPEDFATYYCRQYKTYPFTFGPGTKVDIK
modifications: human IgG1 Fc
B4: H1H6765P: anti-PRLR antibody, human IgG1 Fc; HCVR/LCVR SEQ ID NOs 18/26 (antibody, V domains shown)
VH: EVQLVESGGGVVRPGGSLRLSCVGSGFSFDDHGMNWVRQGPGKGLEWVSGFNWNGGSTNYAESVKGRFTISRDNARNSLFLQMNSLRAEDTALYYCVRGRSGWFNDAFDVWGPGTMVTVSS
VL: EIVLTQSPGTLSLSPGERATLSCRASQTINSNYLAWYRQKPGQTPRLLIYGTSSRATGIPDRFSGSGSGTDFSLTISRLEPEDFAVFYCQQYAGLPTFGPGTKVDIK
modifications: human IgG1 Fc
B5: H1H6976N: human IgG1 Fc form of H2M6976N; anti-PRLR; HCVR/LCVR SEQ ID NOs 386/394 (antibody, V domains shown)
VH: EVQLLESGGGFVQPGGSLRLSCAASGFTFSSYAMSWVRQAPGKGLEWVSIISSNGRYTYYADSVKGRFTISRDNSKNTLYLQMNSLRAEDTAVYYCATVTGDWFDPWGQGTLVTVSS
VL: DIQLTQSPSFLSASVGDRVTITCWASQDIDISLAWYQQKPGKAPKLLIYAASTLQSGVPSKFSGSGSGTDFTLTISSLQPEDFSTYYCQQLNSYPITFGQGTRLDIK
modifications: human IgG1 Fc

The target of one assay is T1, hPRLR.mFc (soluble dimeric human PRLR) (Homo sapiens, UniProt P16471).
T1 construct: dimeric (hPRLR.mFc)
T1 sequence (P16471 with tags, fused parts or gaps): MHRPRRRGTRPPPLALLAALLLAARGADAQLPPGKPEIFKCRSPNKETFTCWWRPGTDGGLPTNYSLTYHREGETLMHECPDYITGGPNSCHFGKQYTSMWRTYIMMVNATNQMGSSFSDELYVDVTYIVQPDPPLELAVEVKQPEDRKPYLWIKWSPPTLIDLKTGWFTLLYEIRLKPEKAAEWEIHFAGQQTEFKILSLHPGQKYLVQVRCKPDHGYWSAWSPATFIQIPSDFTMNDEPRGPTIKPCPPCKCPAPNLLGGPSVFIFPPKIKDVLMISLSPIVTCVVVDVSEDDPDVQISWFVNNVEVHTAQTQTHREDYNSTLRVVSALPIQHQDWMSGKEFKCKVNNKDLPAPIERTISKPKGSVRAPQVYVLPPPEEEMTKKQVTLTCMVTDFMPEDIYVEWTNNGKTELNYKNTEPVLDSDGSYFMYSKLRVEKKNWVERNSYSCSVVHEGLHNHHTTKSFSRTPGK
Briefly: Surface plasmon resonance (Biacore T200), mAb-capture format. Format: binding. As to conditions: 25° C., antibody-capture format, analyte hPRLR.mFc. A digest of the protocol:
(§1)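 First, IgG1-format antibodies were captured via anti-human Fc on the chip. Next, monomeric hPRLR.mmh or mfPRLR.mmh, or dimeric hPRLR.mFc, was injected. Finally, association and dissociation rates were fitted to 1:1 binding.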
A general note: SPR reads the build-up and loss of mass on a sensor chip optically.
For orientation: Kd means a measure of binding affinity in units of concentration. For the molecule B1, the Kd came to 0.0992 nM and the T½ was determined as 2.98 h.

As for B2, binding was put at a Kd of 0.0684 nM and the T½ stood at 9.797 h.

As to B3, the dissociation constant Kd amounted to 0.112 nM and the T½ worked out at 2.15 h.

Consider B4, for which the Kd worked out at 0.0392 nM and the T½ is 5.65 h.

B5: the Kd was determined as 0.0906 nM and the T½ is 1.907 h.

The assay is the same for the next values; noted with them: 37° C., antibody-capture format, analyte hPRLR.mFc.
With B1, the affinity, expressed as Kd, was 0.128 nM and the T½ is 1.87 h.

The molecule B2 yielded a Kd of 0.184 nM and a T½ of 2.717 h.

B3 had a Kd of 0.138 nM and a T½ of 1 h.

B4 showed a Kd of 0.128 nM and a T½ of 1.87 h.

B5 gave a dissociation constant (Kd) of 0.102 nM and a T½ of 1.38 h.

A further assay deals with mfPRLR.mmh (monomeric macaca fascicularis PRLR). Described as above. It is filed as binding. The following applies: 25° C., antibody-capture format, analyte mfPRLR.mmh. A digest of the protocol: as §1
mfPRLR.mmh (monomeric macaca fascicularis PRLR), sequence (as listed by the source): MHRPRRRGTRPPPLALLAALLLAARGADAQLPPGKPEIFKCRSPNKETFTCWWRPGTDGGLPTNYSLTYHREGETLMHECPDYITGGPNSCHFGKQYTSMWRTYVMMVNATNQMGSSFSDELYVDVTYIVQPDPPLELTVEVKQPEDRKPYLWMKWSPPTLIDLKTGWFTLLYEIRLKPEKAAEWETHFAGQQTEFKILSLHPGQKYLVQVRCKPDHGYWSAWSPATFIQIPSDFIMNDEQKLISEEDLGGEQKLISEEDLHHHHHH
In turn, B1 showed a Kd of 0.511 nM and a T½ of 0.917 h.

For B2, the Kd was determined as 1.14 nM and the T½ turned out to be 1.47 h.

B3 yielded a Kd of 1.77 nM and a T½ of 0.217 h.

In turn, B4 had a Kd of 0.254 nM and a T½ of 1.43 h.

B5 had a dissociation constant (Kd) of 1.75 nM and a T½ of 0.237 h.

Staying with this assay, now noted: 37° C., antibody-capture format, analyte mfPRLR.mmh.
B1 displayed a Kd of 0.823 nM and a T½ of 0.35 h.

B2 registered an equilibrium dissociation constant (Kd) of 2.27 nM and a T½ of 0.607 h.

In turn, B3 returned an equilibrium dissociation constant (Kd) of 5 nM and a T½ of 0.05 h.

Regarding B4, the Kd was 0.0504 nM and the T½ was found to be 3.58 h.

In turn, B5 displayed a Kd of 5.24 nM and a T½ of 0.0617 h.

A further assay relates to HEK293 (non-expressing parental cells). Briefly: FACS cell surface binding.
Settings: not given
As to the method: (§2) The ability of anti-PRLR antibodies to selectively bind PRLR expressing cell lines was next determined. Human, monkey macaca fascicularis, and mouse PRLR constructs with an HA tag were stably introduced into HEK293 cells via Lipofectamine 2000-mediated transfection methodology. Transfectants (HEK293/hPRLR, HEK293/mfPRLR and HEK293/mPRLR) were selected for at least 2 weeks in complete growth media plus G418.
(§3) Cell surface expression of PRLR on 293/hPRLR cells was assessed via FACS analysis. Briefly, 1×10^5 cells were incubated with 10 μg/ml of Control antibody I, or an isotype control for 30 min on ice in antibody dilution buffer. Following two washes with antibody dilution buffer, cells were incubated with 10 μg/ml of PE conjugated anti-human secondary antibodies for 30 min on ice. Following two additional washes, samples were run on a Hypercyt® cytometer and analyzed in FORECYT™ (IntelliCyt, Albuquerque, N. Mex.). The mean fluorescence intensities (MFI) were expressed as fold change above isotype control levels (background). FACS binding confirmed that Control I selectively bound to 293/hPRLR expressing cells with MFIs that were 30 fold above background (isotype ctrl) levels and less than 2 fold binding on parental cells.
(§4) Next, the anti-PRLR antibodies of the present invention were tested via FACS for selective binding to the engineered overexpressing PRLR HEK293 cell lines, as well as to non-expressing HEK293 cells and a native PRLR expressing cell line (T47D).
For the molecule B1, the “FACS Cell Binding (Fold Above Background)” value came to 1 Fold Above Background.

For B2, the “FACS Cell Binding (Fold Above Background)” value is on record as 1 Fold Above Background.

Consider B3, for which the “FACS Cell Binding (Fold Above Background)” value stood at 1 Fold Above Background.

Consider B4, for which the “FACS Cell Binding (Fold Above Background)” value was 2 Fold Above Background.

Turning to B5, the “FACS Cell Binding (Fold Above Background)” value is listed as 1 Fold Above Background.

The target in a further assay is T2, HEK293/hPRLR (Homo sapiens, UniProt P16471).
T2 construct: HA; expressed in transfected cells; host or cells: HEK293
T2 sequence (P16471 25-622): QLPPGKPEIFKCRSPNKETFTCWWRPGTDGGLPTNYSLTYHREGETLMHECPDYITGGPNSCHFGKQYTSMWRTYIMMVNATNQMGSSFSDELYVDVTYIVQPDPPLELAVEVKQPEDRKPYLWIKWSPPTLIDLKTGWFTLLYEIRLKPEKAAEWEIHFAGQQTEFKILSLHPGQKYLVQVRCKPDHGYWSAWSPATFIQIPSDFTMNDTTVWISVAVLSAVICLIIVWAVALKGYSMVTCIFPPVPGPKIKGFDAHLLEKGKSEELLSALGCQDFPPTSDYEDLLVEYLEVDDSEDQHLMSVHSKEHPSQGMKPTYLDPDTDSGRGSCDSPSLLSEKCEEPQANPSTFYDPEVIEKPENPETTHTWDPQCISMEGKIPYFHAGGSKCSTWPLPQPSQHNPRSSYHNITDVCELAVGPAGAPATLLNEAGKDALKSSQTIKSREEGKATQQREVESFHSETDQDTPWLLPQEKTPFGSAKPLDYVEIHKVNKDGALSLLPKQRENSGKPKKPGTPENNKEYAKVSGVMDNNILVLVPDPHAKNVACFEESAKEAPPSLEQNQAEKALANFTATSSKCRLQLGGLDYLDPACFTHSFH
As to the kind of experiment: FACS cell surface binding.
Settings: not given
The protocol:
as §2, §3, §4
As for B1, the “FACS Cell Binding (Fold Above Background)” value came out at 36 Fold Above Background.

Regarding B2, the “FACS Cell Binding (Fold Above Background)” value came to 38 Fold Above Background.

As to B3, the “FACS Cell Binding (Fold Above Background)” value is given as 1 Fold Above Background.

Take B4: the “FACS Cell Binding (Fold Above Background)” value amounted to 38 Fold Above Background.

On to B5, for which the “FACS Cell Binding (Fold Above Background)” value is given as 8 Fold Above Background.

The next assay has as its target T3, HEK293/mPRLR (Mus musculus, UniProt Q08501).
T3 construct: HA; expressed in transfected cells; host or cells: HEK293
T3 sequence (Q08501 20-608): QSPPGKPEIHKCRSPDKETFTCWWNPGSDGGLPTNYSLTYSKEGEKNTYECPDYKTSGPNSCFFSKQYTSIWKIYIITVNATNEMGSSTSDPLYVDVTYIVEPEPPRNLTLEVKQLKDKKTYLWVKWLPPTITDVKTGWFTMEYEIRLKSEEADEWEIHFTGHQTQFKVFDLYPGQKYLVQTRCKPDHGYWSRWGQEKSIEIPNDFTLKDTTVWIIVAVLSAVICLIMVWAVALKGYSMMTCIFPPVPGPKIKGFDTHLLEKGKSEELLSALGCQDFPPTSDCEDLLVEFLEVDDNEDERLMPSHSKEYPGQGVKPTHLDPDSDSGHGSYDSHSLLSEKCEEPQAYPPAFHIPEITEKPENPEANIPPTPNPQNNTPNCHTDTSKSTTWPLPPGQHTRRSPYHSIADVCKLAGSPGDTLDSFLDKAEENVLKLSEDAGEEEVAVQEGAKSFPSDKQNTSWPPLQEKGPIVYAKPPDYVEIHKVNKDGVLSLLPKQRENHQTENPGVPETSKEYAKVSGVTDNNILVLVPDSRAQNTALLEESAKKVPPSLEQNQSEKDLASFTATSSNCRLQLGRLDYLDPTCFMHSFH
Briefly: FACS cell surface binding.
Settings: not given
As to the method:
as §2, §3, §4
With B1, the “FACS Cell Binding (Fold Above Background)” value was 2 Fold Above Background.

As for B2, the “FACS Cell Binding (Fold Above Background)” value is 1 Fold Above Background.

As for B3, the “FACS Cell Binding (Fold Above Background)” value is 1 Fold Above Background.

With B4, the “FACS Cell Binding (Fold Above Background)” value was determined as 1 Fold Above Background.

As for B5, the “FACS Cell Binding (Fold Above Background)” value is 1 Fold Above Background.

A further assay concerns the target T4, T47D (native PRLR expressing cell line) (Homo sapiens, UniProt P16471).
T4 construct: a native PRLR expressing cell line (T47D); endogenous in cells; host or cells: T47D
T4 sequence (P16471 25-622): T2 sequence (P16471 25-622)
As to the kind of experiment: FACS cell surface binding.
Settings: not given
As to the method:
as §2, §3, §4
In the case of B1, the “FACS Cell Binding (Fold Above Background)” value was determined as 38 Fold Above Background.

Turning to B2, the “FACS Cell Binding (Fold Above Background)” value turned out to be 46 Fold Above Background.

With B3, the “FACS Cell Binding (Fold Above Background)” value is recorded as 39 Fold Above Background.

Consider B4, for which the “FACS Cell Binding (Fold Above Background)” value was found to be 40 Fold Above Background.

With B5, the “FACS Cell Binding (Fold Above Background)” value was determined as 37 Fold Above Background.

The record behind these values is patent US9688764B2, “Methods of treating breast cancer by administering anti-human prolactin receptor (PRLR) antibodies” (REGENERON PHARMACEUTICALS, INC., priority 2013, dated 2017).
